Consider two molecules from paper PMC10993987 (Molecular Cancer Therapeutics, 2023).

Assay [1] concerns the target His-tagged Fc-fused human IL12Rβ2 (human) (UniProt Q99665). In words: SPR. In general terms: In SPR one partner is held on a chip, and binding of the other changes the refractive index at the surface.
Assay [2] deals with T1, His-tagged Fc-fused human IL12Rβ2 (human, UniProt Q99665 24-622).
T1 sequence (looked up): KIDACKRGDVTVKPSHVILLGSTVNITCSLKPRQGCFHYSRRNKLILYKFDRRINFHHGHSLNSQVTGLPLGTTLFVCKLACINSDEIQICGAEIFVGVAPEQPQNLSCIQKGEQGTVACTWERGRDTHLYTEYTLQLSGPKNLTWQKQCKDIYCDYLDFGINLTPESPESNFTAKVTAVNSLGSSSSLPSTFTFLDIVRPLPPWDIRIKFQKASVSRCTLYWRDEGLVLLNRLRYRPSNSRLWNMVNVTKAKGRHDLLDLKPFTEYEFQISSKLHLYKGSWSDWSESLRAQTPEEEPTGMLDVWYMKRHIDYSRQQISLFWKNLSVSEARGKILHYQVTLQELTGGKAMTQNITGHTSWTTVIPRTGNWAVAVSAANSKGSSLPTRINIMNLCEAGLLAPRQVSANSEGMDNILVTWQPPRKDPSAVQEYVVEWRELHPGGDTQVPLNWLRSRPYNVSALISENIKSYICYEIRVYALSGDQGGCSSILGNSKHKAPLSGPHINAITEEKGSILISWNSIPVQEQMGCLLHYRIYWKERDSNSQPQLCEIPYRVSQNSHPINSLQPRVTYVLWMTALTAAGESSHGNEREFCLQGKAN
The assay is described as follows: SPR.

“proteolytically cleaved XTX301 (active IL12 released from XTX301) (ligand)” came in with a Kd in assay [1] of 7.97 nM.

B1: wild-type recombinant human IL12 (complex)
chain 1: RNLPVATPDPGMFPCLHHSQNLLRAVSNMLQKARQTLEFYPCTSEEIDHEDITKDKTSTVEACLPLELTKNESCLNSRETSFITNGSCLASRKTSFMMALCLSSIYEDLKMYQVEFKTMNAKLLMDPKRQIFLDQNMLAVIDELMQALNFNSETVPQKSSLEEPDFYKTKIKLCILLHAFRIRAVTIDRVMSYLNAS
chain 2: IWELKKDVYVVELDWYPDAPGEMVVLTCDTPEEDGITWTLDQSSEVLGSGKTLTIQVKEFGDAGQYTCHKGGEVLSHSLLLLHKKEDGIWSTDILKDQKEPKNKTFLRCEAKNYSGRFTCWWLTTISTDLTFSVKSSRGSSDPQGVTCGAATLSAERVRGDNKEYEYSVECQEDSACPAAEESLPIEVMVDAVHKLKYENYTSSFFIRDIIKPDPPKNLQLKPLKNSRQVEVSWEYPDTWSTPHSYFSLTFCVQVQGKSKREKKDRVFTDKTSATVICRKNASISVRAQDRYYSSSWSEWASVPCS
Consider B1, for which the Kd in assay [2] worked out at 0.93 nM.

For orientation: Kd means a measure of binding affinity in units of concentration. Read a low Kd as tighter binding.
